Results on one molecule are retold here after US20130243775A1.

The target in this assay is interleukin-4 receptor (IL-4R) (UniProt P24394). Description: cell-based or functional assay.

Some results are limits rather than exact numbers.

Sequence of UniProt P24394 (P24394 26-825 limits assumed): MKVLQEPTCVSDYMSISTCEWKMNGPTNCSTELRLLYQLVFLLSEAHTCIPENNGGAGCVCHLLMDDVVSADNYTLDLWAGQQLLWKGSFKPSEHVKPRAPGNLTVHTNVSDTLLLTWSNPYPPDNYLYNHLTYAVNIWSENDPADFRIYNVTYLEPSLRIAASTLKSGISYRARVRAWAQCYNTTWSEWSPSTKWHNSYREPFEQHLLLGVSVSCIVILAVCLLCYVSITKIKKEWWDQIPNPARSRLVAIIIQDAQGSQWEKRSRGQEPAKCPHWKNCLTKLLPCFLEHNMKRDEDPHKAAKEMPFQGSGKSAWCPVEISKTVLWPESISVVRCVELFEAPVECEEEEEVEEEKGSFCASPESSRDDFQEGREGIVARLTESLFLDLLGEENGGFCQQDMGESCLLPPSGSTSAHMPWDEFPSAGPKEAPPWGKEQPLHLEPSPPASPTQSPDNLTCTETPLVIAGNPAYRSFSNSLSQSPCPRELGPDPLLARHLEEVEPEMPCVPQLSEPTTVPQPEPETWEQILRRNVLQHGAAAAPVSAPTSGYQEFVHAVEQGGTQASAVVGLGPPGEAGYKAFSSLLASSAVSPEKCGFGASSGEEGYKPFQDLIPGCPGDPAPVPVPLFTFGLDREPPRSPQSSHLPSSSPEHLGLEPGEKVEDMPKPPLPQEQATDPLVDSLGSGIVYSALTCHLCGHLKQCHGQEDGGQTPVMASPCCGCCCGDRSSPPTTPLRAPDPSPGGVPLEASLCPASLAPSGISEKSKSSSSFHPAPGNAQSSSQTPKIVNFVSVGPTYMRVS

B1: anti-IL-4R:anti-CD63 conjugate (streptavidin-conjugated anti-IL-4R antibody combined 1:1 with biotinylated anti-CD63 antibody MEM-259) (protein, part only; not given: anti-CD63 antibody, constant regions, part only)
VH: EVQLVESGGGVVQPGRSLRLSCVASGFTFSDYGMHWVRQAPGKGLEWVAVIWYDGSIKYFRDSVKGRFTISRDNSKNTLYLQMNSLRVEDTAHYYCAKESSSWYFYHGLDVWGQGTMVTVSS
VL: EIVMTQSPLSLPVSPGEPASISCRSNQSLLHSNGNNYLAWYLQKPGQSPHLLIYLGSNRASGVPDRFSGSGSGTDFTLKISRVEAGDVGTYFCMQSLQAPPFTFGPGTKVEIKR
modifications: antibody is streptavidin-conjugated (site not stated)
On to B1, for which the attenuation of IL-4R activity relative to the control constructs (STAT6-luciferase reporter) is greater than 10%.
